From the supplement of paper PMC9170038

Tests used:
[1] = test system: MS2 coat protein; test: apparent KD of MS2 coat protein, switch ON state; designed switch direction (-1 OFF switch, 1 ON switch): 1; higher = weaker reporter binding; details: FMN input: 0 or 200 uM; Eterna round: R93 (includes R88 designs)
Outline: (§1)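 Designed RNA switches were made by on-chip transcription from Illumina sequencing clusters and then titrated with SNAP-549-labelled MS2 coat protein. Twofold steps ran from 0.7 or 1.5 nM to 3 µM, each lasting 0.8–1.5 h early and 10–20 min late, in 100 mM Tris-HCl pH 7.5, 80 mM KCl, 4 mM MgCl2, without or with constant ligand. Apparent KD is the per-design median of normalised cluster binding-curve fits.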

[2] = test system: MS2 coat protein; test: apparent KD of MS2 coat protein, switch OFF state (with FMN for OFF switches, without FMN for ON switches); designed switch direction (-1 OFF switch, 1 ON switch): 1; higher = weaker reporter binding; details: FMN input: 0 or 200 uM; Eterna round: R93 (includes R88 designs)
Outline: as §1

Sequence | apparent KD of MS2 coat protein [1] | apparent KD of MS2 coat protein [2]
CCCAAUGCAACGAAGGAUAUCCGUCAUGCCACAUGAGGAUCACCCAUGUACUGGCGGCACAAGACGGAGAAGGUCGGGUGCUGUG [Quenrean] | 9.4 nM | 11 nM
CCGAUGGUAUACUAGGAUAUGGGCGCCCUUACAUGAGGAUCACCCAUGUUAUCACAAAGCCGCGGCCAGAAGGAGUUCAUGGGAG [Tieronsove] | 94.7 nM | 122 nM
CCUAGACAUGAGGAUCACCCAUGUCGAACAAACAAAGGAUAUGGGAGCCGAAGAAGGCUAUUAGAAGGUUGCAAAU [Aisedbi] | 29.4 nM | 34 nM
CGAAAGGAGAGAGAGGAUAUCCAAAGGAAAACAUGAGGAUCACCCAUGUAGAAGGUAGGAGAUUGGGAGAAGGCUCAAGAGAGCU [salish99-ss2-152] | 30.5 nM | 32.6 nM
CGAAAGGAGAGAGAGGAUAUCCAAAGGAAAACAUGAGGAUCACCCAUGUAGAAGGUAGGAGAUUGGGAGAAGGCUCAAGAGAUAU [salish99-ss2-153] | 20 nM | 44.2 nM
CGCAAACAUGAGGAUCACCCAUGUCAAUGUGGUCAAGGAUAUGGGUUCCUAAAUGGAACACCAGAAGGUGAAAAGA [Anesatve] | 20 nM | 54.5 nM
CGGGCCCGGGCGCAGGAUAUCUGAAAAAAAACAUGAGGAUCACCCAUGUGUGGGAAAAAAAAAAAAGAGAAGGGCGCCCGGGCCC [Natural State 2 -38.15 -4 kcal] | 29.4 nM | 48.6 nM
GAAAAACAUGAGGAUCACCCAUGUAAAAAUAUGGGAGGAUAUUGAAACACGAAAGUCAAACAAGAAGGCCUAAAAG [Garnet 3] | 44.1 nM | 147 nM
GAAAAACAUGAGGAUCACCCAUGUAGAAACAUGGGAGGAUAUACAAAGACGAAAGUCAAAGUAGAAGGCCUAAAAA [Mat - Same State 1 - Mod - D160] | 149 nM | 851 nM
GAAAAACAUGAGGAUCACCCAUGUAGAAAUAUGGGAGGAUAUACAAAGACGAAAGUCAAAGUAGAAGGCCCAAAAG [Starry Same State 1.1 (mat747 round 1 mod)] | 24.1 nM | 38.8 nM
GAAAAACAUGAGGAUCACCCAUGUAGAAAUAUGGGAGGAUAUACAAAGUGGAAAGACAAAGUAGAAGGCCUAAAAG [Garnet 25] | 35.6 nM | 309 nM
GAAAAACAUGAGGAUCACCCAUGUAGAGAUAUGGGAGGAUAUACGAAGACGAAAGACGAGGUAGAAGGCCUAAAAG [Garnet 57] | 66.1 nM | 218 nM
GAAAAACAUGAGGAUCACCCAUGUAGAGAUAUGGGAGGAUAUACGAAGACGAAAGUCGAGGUAGAAGGCCUAAAAG [Garnet 56] | 27.7 nM | 108 nM
GAAAAACAUGAGGAUCACCCAUGUGAGAACAUGGGAGGAUAUACGAGGACGAAAGUCAAAGUAGAAGGCCUAAGAG [Garnet 86] | 164 nM | 30 nM
GAAAAACAUGAGGAUCACCCAUGUGGAAAUAUGGGAGGAUAUACAAAGACGAAAGUCAAAGUAGAAGGCCUAAAAG [Mat - Same State 1 - Eli mod - D4] | 18.2 nM | 111 nM
GAAAAACAUGAGGAUCACCCAUGUGGAAAUAUGGGAGGAUAUACAAAGACGUAAGUCAAAGUAGAAGGCCUAAAAG [Garnet 94] | 30.8 nM | 177 nM
GAAAUAAAAACACAGGAUAUCCAAAAGAAAACAUGAGGAUCACCCAUGUAAAGAAAAUAAAAAUGGGAGAAGGGUGAAAAUAAAG [Mat - Same State 2 - JL mod - D25] | 26.4 nM | 93.8 nM
GAAAUAAAAACACAGGAUAUCCAAAAGAAAACAUGAGGAUCACCCAUGUAAAGAAAAUAAAAAUGGGAGAAGGGUGAAAUAAAAA [Mat - Same State 2 - JL mod - D27] | 30.4 nM | 33.8 nM
GAACCACAUGAGGAUCACCCAUGUCUAAGAAUGGGAGGAUAUGCACAAAAGGAAAUAACUGCAGAAGGCCUACGAA [62%, Redo, 2] | 23.2 nM | 129 nM
